Experimental data as given in paper PMC11210195 (2024).

Key:
mAb1 WT-AAA = mAb1 WT-AAA (human, UniProt P01857 = IgG part); assay: SPR
[1] = target: mAb1 WT (human IgG1 Fc WT) (human, UniProt P01857 = IgG part); assay: SPR

B1: TRIM21 PRYSPRY domain (domain or fragment)
chain: GLKKMLRTCAVHITLDPDTANPWLILSEDRRQVRLGDTQQSIPGNEERFDSYPMVLGAQHFHSGKHYWEVDVTGKEAWDLGVCRDSVRRKGHFLLSSKSGFWTIWLWNKQKYEAGTYPQTPLHLQVPPCQVGIFLDYEAGMVSFYNITDHGSLIYSFSECAFTGPLRPFFSPGFNDGGKNTAPLTLCPLNIGSQGSTDY
modifications: biotinylated where it was captured via monovalent streptavidin
koff (mAb1 WT-AAA): 0.105 s⁻¹ | koff [1]: 0.0994 s⁻¹
